B1: recombinant Kap95p (natural protein)
chain: MSTAEFAQLLENSILSPDQNIRLTSETQLKKLSNDNFLQFAGLSSQVLIDENTKLEGRILAALTLKNELVSKDSVKTQQFAQRWITQVSPEAKNQIKTNALTALVSIEPRIANAAAQLIAAIADIELPHGAWPELMKIMVDNTGAEQPENVKRASLLALGYMCESADPQSQALVSSSNNILIAIVQGAQSTETSKAVRLAALNALADSLIFIKNNMEREGERNYLMQVVCEATQAEDIEVQAAAFGCLCKIMSLYYTFMKPYMEQALYALTIATMKSPNDKVASMTVEFWSTICEEEIDIAYELAQFPQSPLQSYNFALSSIKDVVPNLLNLLTRQNEDPEDDDWNVSMSAGACLQLFAQNCGNHILEPVLEFVEQNITADNWRNREAAVMAFGSIMDGPDKVQRTYYVHQALPSILNLMNDQSLQVKETTAWCIGRIADSVAESIDPQQHLPGVVQACLIGLQDHPKVATNCSWTIINLVEQLAEATPSPIYNFYPALVDGLIGAANRIDNEFNARASAFSALTTMVEYATDTVAETSASISTFVMDKLGQTMSVDENQLTLEDAQSLQELQSNILTVLAAVIRKSPSSVEPVADMLMGLFFRLLEKKDSAFIEDDVFYAISALAASLGKGFEKYLETFSPYLLKALNQVDSPVSITAVGFIADISNSLEEDFRRYSDAMMNVLAQMISNPNARRELKPAVLSVFGDIASNIGADFIPYLNDIMALCVAAQNTKPENGTLEALDYQIKVLEAVLDAYVGIVAGLHDKPEALFPYVGTIFQFIAQVAEDPQLYSEDATSRAAVGLIGDIAAMFPDGSIKQFYGQDWVIDYIKRTRSGQLFSQATKDTARWAREQQKRQLSL
B2: recombinant Kap121p (natural protein)
chain: MSALPEEVNRTLLQIVQAFASPDNQIRSVAEKALSEEWITENNIEYLLTFLAEQAAFSQDTTVAALSAVLFRKLALKAPPSSKLMIMSKNITHIRKEVLAQIRSSLLKGFLSERADSIRHKLSDAIAECVQDDLPAWPELLQALIESLKSGNPNFRESSFRILTTVPYLITAVDINSILPIFQSGFTDASDNVKIAAVTAFVGYFKQLPKSEWSKLGILLPSLLNSLPRFLDDGKDDALASVFESLIELVELAPKLFKDMFDQIIQFTDMVIKNKDLEPPARTTALELLTVFSENAPQMCKSNQNYGQTLVMVTLIMMTEVSIDDDDAAEWIESDDTDDEEEVTYDHARQALDRVALKLGGEYLAAPLFQYLQQMITSTEWRERFAAMMALSSAAEGCADVLIGEIPKILDMVIPLINDPHPRVQYGCCNVLGQISTDFSPFIQRTAHDRILPALISKLTSECTSRVQTHAAAALVNFSEFASKDILEPYLDSLLTNLLVLLQSNKLYVQEQALTTIAFIAEAAKNKFIKYYDTLMPLLLNVLKVNNKDNSVLKGKCMECATLIGFAVGKEKFHEHSQELISILVALQNSDIDEDDALRSYLEQSWSRICRILGDDFVPLLPIVIPPLLITAKATQDVGLIEEEEAANFQQYPDWDVVQVQGKHIAIHTSVLDDKVSAMELLQSYATLLRGQFAVYVKEVMEEIALPSLDFYLHDGVRAAGATLIPILLSCLLAATGTQNEELVLLWHKASSKLIGGLMSEPMPEITQVYHNSLVNGIKVMGDNCLSEDQLAAFTKGVSANLTDTYERMQDRHGDGDEYNENIDEEEDFTDEDLLDEINKSIAAVLKTTNGHYLKNLENIWPMINTFLLDNEPILVIFALVVIGDLIQYGGEQTASMKNAFIPKVTECLISPDARIRQAASYIIGVCAQYAPSTYADVCIPTLDTLVQIVDFPGSKLEENRSSTENASAAIAKILYAYNSNIPNVDTYTANWFKTLPTITDKEAASFNYQFLSQLIENNSPIVCAQSNISAVVDSVIQALNERSLTEREGQTVISSVKKLLGFLPSSDAMAIFNRYPADIMEKVHKWFA

Target: His6-tagged human RanGTP Q69L (human, UniProt P62826 1-216, Q69L)
Assay: pull-down

Binder	binding result
B1	binds
B2	binds

From PMC2169462 (The Journal of Cell Biology, 2001)
